Measurements: the nanobody polyreactivity screen of Harvey et al. (2022)

Assay: yeast display, Sf9 membrane polyspecificity reagent, FACS + sequencing; frameworks hold sequencing errors
Procedure, shortened: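 Nanobodies from a synthetic yeast display library (Saccharomyces cerevisiae BJ5465), induced 36–48 hours with galactose, were stained 1 hour at 4 °C with 10% biotinylated, detergent-solubilized Sf9 membrane reagent, enriched on streptavidin microbeads, then FACS-sorted. Anti-HA (expression) and streptavidin (reagent binding) fluorescence set low and high (top ~1%) gates. Polyreactivity labels come from the gate of origin. Genes were colony-PCR amplified, MiSeq 2 × 250 sequenced and filtered by CDR length.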

Sequence	polyreactivity (PSR sort gate)
QVQLVESGGGLVQAGGSLRLSCAASGRTIWYYAMGWYRQAPGNERELVASITRSGGSTYADSVQGRFPISRDNAKNTVYLQMNSLKPQDTAVYYCAVGAVVPGLRRRTYYYWGQGTQVTVSS	high polyreactivity
QVQLVESGGGLFHAGGSLRLSCAASGIIFGGYTIGWYRQAPGKERELVAAISWSGVGTYYADSVKGRFTISRDNAKNTVYLQMNSLKPDDTAVYYCAAWAYYSDDDEYWGQGTQVTVSS	high polyreactivity
QVQLEESGGGLVQAGGSLRLSCAASGRIFTGYAMGWYRQAPGKERELVAAIRGSGTSTYYADSVKGRFTISRDNAKNTVYLQMNSLKPEDTAVFYCAADWYTSRGWDWYDYWGQGTQVTVSS	high polyreactivity
QVQLVESGGGLVQAGGSLRLSCAASGSTFHRNAMGWYRPAQGKERELVASISIGGSTNYADSVKGRVTISRDNAKNTVYLQMNSLKPEDTAVYYCATEPNPRRPRVDYDYWGQGTQVTVSS	low polyreactivity
QVQLVESGGGLDQAGGSLRLSCAASGRIIRFYAMAWYRQAPGKERELVAAISSRGGSTYYADSVKGRFTISRDNAKNTVYLQKNSLKPEDTAVYYCAKKTWRDYAYNYWGQGTQVTVSS	high polyreactivity
QFQLVESGGGLVQAGCSLRLSCAAYGSIFGGYAMGWYRQAPGKERELVAAISYRGASTYYADSVKGRFTISRDNAKNTVYLQMNILKPEDTAVYYCAVPARTRARVLYGYDYWGQGTQVTVSS	low polyreactivity
QVQLVESGGRLVQAGGSLRLSCAASGRIFGAYAMGWYRQAPGKERELVAAINSGGSTFYADSVKGRFTISRDNAKNTVYLQMNRLKPEDTAVYYCAKRSYDYRRYSWGQGTQVTVSS	high polyreactivity
QVQLVESGGGLVQAGGSLRLSCAASGRTSYGYAMGWYRQAPGKERELVAGISRSGSSTYYADSVKGRFTISRDNAKNTVYLQMNSMKPEDNAVYYCNAARPFNRVPRQTWKMGYWGQGTQVTVSS	high polyreactivity
QVQLVESGGGLVQAGGSLRLSCAASGRIIVRNAMGWYRQAPGKERELVAAISGSGSRTYYADSVKGRFTISRDNAKNTVYLQMNSLNPEDTAVYYCAASGYWPFRSGFGYWGQGTQVTVSS	high polyreactivity
QVQLVESGGGLVQAGGSLRLSCAASGFIFYSYTMGWYRQAPGKERELVATISSNGGRTYYADSVKGRFTISRDNAKNTVYLQMNSLKPEDTAVYYCATDVPHGYYWSYGDYYWGQGTQVTVSS	low polyreactivity
QVQLVESGGGLVQAGGSLRLSCAASGSNFAAYTMGWYRQAPGKERELVAAISVSTVSTYYADSVKGRFTISRDNAKNTVYLQMYSLTPEDTAVYYCIADATDSYPEKYEHDSWGQGTQVTVSS	low polyreactivity
QVQLVESGGGLVHAGGSLRLSCAAPGRTSRYYVMGWYRQAPGKERELVAAISKNGGSTYYADSVKGRFTISRDNAKNTVYLQMNSLKPEDTAVYFCAASYYPFSYGHGYDYWGQGTQVTVSS	high polyreactivity
QVQLVESGGGLVQAGGSLRLSCAASGRLSVFYTMGWYRQAPGKERELVAVSRTSGGRTNYADSVKGRFTISRDNAKNTVYIEMNCLKPEDSGDYYGNAEFTYRWGYWQVYLLDYWGQGTQVTVSS	low polyreactivity
QVQLVESGGGLVQAGGSLRLSCAATGRPSTSMLWDGIDRRLGKKGSSLTYYADSVKGRFTISRDNAKNTVYLQMNCLKPEDTAVYYCNKRRRWDNYGYRYGYWGQGTQVTVSS	low polyreactivity
QVQLVESGGGLVQAGGSLRLSCAASGRTLVKYAMGWYRQAPGKERELVAAISSGGGTYYADSVKGRFTISRDNAKNTVYLQMNSLKPEDTAVYYCATPYYRRYAAPGYDYWGQGTQVTVSS	low polyreactivity
QFQLVESGGGLVQAGGSLRLSCAASGFTFYYYTMGWYRQAPGKERELVAAITWRGGSTNYADSVKGRFTISRDNAKNTVYLQMNSLKPEDTAVYYCAAVTYWFWPGMDYWGQGTQVTVSS	low polyreactivity
QVQLVESWGGLVQAGGSLRLTCAASGRILWFYSMGWYRQAPGKERELVAAISSSSGRTYYADSVKGRYTISRDNAKNTVSLQMNSLKPEDTAVYYCAATHAVARPLEYDYWGQGTQVTVSS	low polyreactivity
QVQLVESGGGLDQAGGSLRLSCAASGSIFKLNARGWYREAPGKERELVAAITSVGRTYYADSVKGRFTISRDNAKKTVYLQMNSLKPEDTAVYYCGAARYGVYWYGYWGQGTQVTVSS	high polyreactivity
QVQLVESGGGLVQAGGSLRLSCAASGGIVSINAMGWYRQAPGKERELVAAIRWNSGRTYYADSVKGRFTISRDNAKNTVYIQMNSLKPEDTAVYYCAVRDYISWEDYYWGQGTQVTVSS	high polyreactivity
QVQLVESGGGLVQAGGSLRLSCAASGRTFSSYAMGWYRQAPGKERELVAAISWSGGRTYYADSVKGRFTISRDNAKNTVYLQMNSLKPEDTAVYYCAAEGDKRKYWYLYDYWGQGTQVTVSS	high polyreactivity
QVQLVESGGGLVQAGGSLRLSCAASGRIFITNAMGWYRQAPGKERELVAVISYIGGRTYYADSVKGRFTISRDNAKNTVYLQMNSLKPEATAVYYCAARRSRPTYYSTGVNYWGQGTQVTVSS	high polyreactivity
QVQLVESGGGLVQAGGSLRLSCAASGSTFGVYAMGWYRQAPGKEREFVAAITSSSGSTYYADSVKGRFTISRDNAKNTVYLQMNSLKPEDTAVYYCNVQGWTRSDAGRYDNMDYWGQGTQVTVSS	low polyreactivity

Sequence	polyreactivity (PSR sort gate)
QVQLVESGGGLVQAGGSLRLSGDASGSTFIYNAMGWYRQAPGKERELVAAIDWSGGDTYYADSVKGRFTISRDKAKNTVYLLMNSLKPEDTAVYYCAAVKRGGFYWGQGTQVTVSS	high polyreactivity
QVQLVESGGCLVQAGGSLRLSCAASGSTFRWNSIGSYRQAPVKEREFVASITSGGSTNYADSVKGRYTISRDIAKNTVYLQMNSLKPYDTAVYYCNADVRRSSYYVWLYDYWGQGTQVTVSS	low polyreactivity
QVQLVESWGGLVQAGGSLRLSCAASGSIFRRYAMGWYRQAPGKERELVAAISIGGRTYYADSVKGRFTISRDNAKNTVYFQMNSLKPEDTAVYYCAARESRSWGGGSWGQGTQVTVSS	high polyreactivity
QVQLVESGGGLVQAGGSLRLSCAASGSIFTRYAMGWYRQAPGKERELVAAISYRGDRTYYADSVKGRFTISRDNAKNTVYLQMNSLKPEDTAVYYCAATVQYSPIYDYWGQGTQVTVSS	high polyreactivity
QVQLVESGVGLVQAGGSLRLSCAASGSTFLTNVMGWYRQAPGKERELVAAITIGGSTNYADSVKGRFTISRDNAKNSVYLQMNSLKPEDTAVYYCATDIRRKPRYVDYEYWGQGTQVSVSS	low polyreactivity
QVQLVESGGGLVQAGGSLRLSCAASGSTFDYYAMGWYRQAPGKERELVAAISRTGGRTYYADSVKGRFTISRDNAKNTVYLQMNSLKPEDTAVYYCNAVTPIGGGDYDYWGEGTQVTVSS	low polyreactivity
QVQLEESGGGLVQAGGSLRLSCAASGRIFATNAMGWYRPAPATERELVAAISSSGGPTYYADSVKGRFTISRDNAKNTVYLQMNSLIREATAVYYCARVPITNDQYSHYYYWGQGTQVTVSS	high polyreactivity
QVQLVESGVGLVQAGGSLRLSCAASGSIFDKNAMGWDRPAPGKERELVAAISRSGGSTYYADSVKGRFTISRDNAKNTVYLQMNSLKPEDTAVYYCNKYTNGRNFDYWGQGTQVTVSS	high polyreactivity
QVQLVESGGGLVQAGGSLRLSCAASGLIFTSYAMGWYRQAPGKERELVAAISYSGGTTIYADSVKGRFTISRDYAKNTVYLQMNSVKPEDTAVYYCAADSLSTTHDTLGYDRDDYWGQGSQVTVSS	low polyreactivity
QVQLVESGGGLVQAGGSLRLRCAASGSIFHSYAMAWYSQAPGKEREMVASITASVDSTYYADSVKGRFTISRDNAKNTVYLQMNSLIPEDTAVYYCAAEAQFNFYSYDFWGQGTQVTVSS	low polyreactivity
QVQLVESGGGLVQAGGSLRLSSAASGSIFERYTMAWYRLAPGKERELVAVISTGGGSTNYADSVKGRFTFSRDNAKNTVYLQMNSLKPADTAVYYCAASYGYYRYGYWGQGTQVNVSS	high polyreactivity
QVQLVESGGGLVQAGGSLRLSCAASGLTFYAYAMGWYRQAPVKERELVAAISVRGRSTYYADSVKGRFTISRDIAKNTVFLQMNSLKPEDTAVYYCAAEFYRVQNFQFYYWGQGTQVTVSS	high polyreactivity
QVQLVESGGGLVQAGGSLSLSCAAYGGIFPENAMGWYRLAPGKERELVAAMSRSGSSTYYADSVKGRFTISRDNAKNTVFLQMNSLKPEVTAVSYCAARGVKWGQGSQVTVSS	high polyreactivity
QVQLEESGGGLVQAGGSLRLSCAASGSTFANYAMGWYRQAPRKERELVAGISWRGGRTYYADSVMGRFTISRDNGKNTVYLQINILKPEDTAVYYCAVVHQTFTGDYWGQGTQVTVSS	high polyreactivity
QVQLVESGGGLVQAGGRLRLICAASGSIFVSYALGWYRQAPGKERELVAAISTTGGRTRYADSVKGRFTISRDNAQNTVYLQMNSLKPEDTAVYYCAAVGARKMYYWGQGTQVTVSS	high polyreactivity
QVQLVESGGGLVQARGSLRLSCASSGRIFWRYAMRWYSQSPGKERELVAAISRSGGRTYYADSVKGRFTISRDNAKNTVYLQMISLKPEDTAVYYCAAKTGGQPGDYWGQGTQVTVSS	high polyreactivity
QVQLVESGGGLVQAGGSLRLSCAASGSIFRGYTLGWYRQAPGKERELVAAISTRGGSTYYADSVKGRFTISRDNANNTVYLQMNSLKPEDTAVYYCNARSRGRASGYDYWGQVTQVTVSS	high polyreactivity
QVQLVESGGGLVQAGGSLRLSCAASGRIFRTNAMGWYRQAHGKEWELVAAITRGGTTNYADSVKGRFTISRDNAKNTVYLQMNSLKPEDTAVYYCAVDQGYVVRLAWIYGYWGQGTQVTVSS	low polyreactivity
QVQLVESGGGLVQAGGSLRLSCAASGLIFAYYAMGWYRQAPGKERELVAAISWTGGSTYYADSVKGRFTISRDNAKNTVYLQMTSLKPEDTAVYYCNTVGKPGFYSWGQGTQVTVSS	high polyreactivity
QVQLVESGGGLVQAGGSLRLSCAASGSIFTRNTMGWYRQAPGKERELVAAITSSGGSTYYADSVKGRFTISRDTAKNTVYLQMNSLKPEDTAVYYCAADVGVYYYSFYYWGQGTQVTVSS	high polyreactivity
QVQLVESGGGLVQAGGSLRLSCAASGSIFAPDVMGWYRQAPGKERELVAAITESGGRTYYAASVKGRFTISRDNAKNTVYLQMNSLKPVDTAVYSCAARTFDRNRQLRRQWYDYWGLGTQVTVSS	high polyreactivity
